In publication PMC10081965 (Structure (London, England : 1993), 2023):

Key:
UBQLN2 = UBQLN2 (UniProt Q9UHD9 1-624); test: recruitment to biomolecular condensates in vitro
UBQLN2 UBL (26–103) = UBQLN2 UBL (26–103) (UniProt Q9UHD9 26-103); test: NMR titration
UBQLN2 UBL (26–103), sequence (Q9UHD9 26-103): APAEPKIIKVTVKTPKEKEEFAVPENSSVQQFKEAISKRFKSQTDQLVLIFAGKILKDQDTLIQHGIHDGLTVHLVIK

Binder | binding result (UBQLN2) | binding result (UBQLN2 UBL (26–103))
AZUL-mEGFP (E6AP isoform II 24–87 with a C-terminal mEGFP) (domain or fragment, UniProt Q05086 24-87, looked up) MKRAAAKHLIERYYHQLTEGCGNEACTNEFCASCPTFLRMDNNAAAIKALELYKINAKLCDPHP | binds | 
UBQLN1 (514–589, F547Y) (domain or fragment, UniProt Q9UMX0 514-589, looked up) TAGTTEPGHQQFIQQMLQALAGVNPQLQNPEVRYQQQLEQLSAMGFLNREANLQALIATGGDINAAIERLLGSQPS |  | binds
